Target: gp59(C42)-Cy3, helicase loader protein of the T4 bacteriophage DNA replisome (bacteriophage T4) (UniProt P13342)
Assay: FRET or BRET

Sequence of UniProt P13342 (P13342 whole entry): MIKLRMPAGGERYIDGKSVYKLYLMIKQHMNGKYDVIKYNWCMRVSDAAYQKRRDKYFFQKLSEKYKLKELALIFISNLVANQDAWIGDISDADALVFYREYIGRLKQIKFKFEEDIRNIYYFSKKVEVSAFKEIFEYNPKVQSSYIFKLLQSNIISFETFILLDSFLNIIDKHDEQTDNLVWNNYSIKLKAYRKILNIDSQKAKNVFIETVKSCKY

Cy5-N-gp43(exo-), T4 gp43 polymerase (from UniProt P04415 1-898) (enzyme)
duration of a single FRET event: > 80 s
